Results as given in the DeepSol protein solubility set.

Assay: soluble on expression in E. coli; label from the status in PepcDB or PDB records

Soluble on expression in E. coli, not soluble:
MGSDKIHHHHHHMPSGGVLPVGVHATPMSVREEFDEWAASGRDKGMEDRHWHTAKDVLARMPVEDDDTVLDLGTGSGYAVRALRERGVARGYGLDGAPEMAANARTYTDDDDLAYVVGDFGSLPFADDAIDHVFSFEAFYYASDPRETLAEIRRVLKSGGTFYCGVNYYEENVHSHDWQDSISVEMTRWDRATYREAFRGAGLHVAAQDLIADTEIDIPAASEFPHEGFDSRADMVERYRTFGTLLTVGVAP, MGSDKIHHHHHHMPSPLLRRENKIKILRYILKNGKTTRNQLASNLNLAHSTLSYIIDELLDEGFLVFEEIKKKRGRPYQILSVNPEKFTAIGVKVGREEVRGVLFDARMNPLKEHRVQILSGMRNNDGYTRALRETIEQLRSENLLGVGICSSGIVKEGRVVVSHVMNVKDWDPRKVLKDLERILVMNDSDALCREISQRVNTDFLLVSYGVGIGASLWKDKKIHHIEMGHMLAASEGKCYCGQTGCLEYHSSEYAVLKSYLGKEIDFEDFITSEEEKYRQTIEELREKAREDFDSVKVHYEKAFKTFSVVLGNVIMGSGVSRVFFAGEGVVSEEMVKILEELVKVRFNRDFVGEVQFQVADANWMLGAARAVVDKYLPYIVK, MGSDKIHHHHHHMPSWFTNVQLGFDMATSLTIVGAAVTWVIREKKQAEAEKVRGINQQVRSTSLKKVQDVLFEMEDKFSVLINETQTYENMIDNRVRKVNDQLDFSRLNLAIKRDDQFLIKAIDRLQAIREELGQFYELIQVRRYSLIPLLDAIEEGDKYIGVFQQNIDEVGDAYNQVTSGNVSLLKELEAVISMLNKQFGDELVDVSDEVKKELFQKISTDETFMKPIQSIIYDEDYFYWVQRFVPAGREDDYLEKVVRPSKIEDKELCSEVMVHFILALIGKNHELISQVLRTASGSVMKARIECKDILISLSAISHKLVMDNNGETLEKVIAKYESEEYFGRNVTIR, MGSDKIHHHHHHMPVGRGVSVGLLPKSQSPLIGVDISSTAVKLLQLSRSGNRFRVEHYAVEPLPPNAVVEKNIVEVEAVGEAIRRAINRSGSKAKNAAAAVAGSAVITKLIPMPADLDDSDLEAQVELEATNYIPYPIEEVNLDFEVLGPMPNSPDMVQVLLAASRSENVELRQSALELGGLVAKVMDVEAFAVENAFALVASELPVAADAVVALVDIGATMTTLSVLRSGRSLYSREQVFGGKQLTDEVMRRYGLTYEEAGLAKRQGGLPESYEVEVLEPFKEATVQQISRLLQFFYAGSEFNRVDCIVLAGGCAALSRLPEMVEEQLGVTTVVANPLAQMTLGPKVQAHALALDAPALMIATGLALRSFD, MGSDKIHHHHHHMPVRRIALITNGYPDIYARERSFILPELKALLAYGHQVTLVPVREVTEVDPDLPDGVAVERRLAHLYRPWQLPATVLWMMFRGYFWREAWQCLGRGRLRYLGHFFKESVRATNTLRMQSALRDYDVLYTYWFKGESTGISLMPGTHARRLTRAHGYDLYEDRPNNEGYIPYREMTLPRLDRVVVLSEEARAYLEQRYPASVGRTVVSPLGVAHESDENPGPEADRIVLVSCSYPTPNKRLPLIGQLAAAVACARPSVKVVWMHFGCRREEAGLPVDFAGPPNLSVQFAGEAPNEHIRRWYATRPVSFFVNLSQSEGQPVSIMEAMAFGIPVMATGVGGIPEMLRHGGGMTLPEQPDVNAVAREMLSLLDDPSRYQAMREAARETQLAYFNTSANHRTLADLIGEF, MGSDKIHHHHHHMPYTTYRQQAVDEQTLAQTELNQYIADQAQVIAPEEYTSVEINFYYHEIYISSQLIAQIAYDHNEFVTQRWLVLVNDKEEFRANTWAKCYRYICTHHKDGSLPVQERETPAATTGNEIMVQIADECENLGLELLEDGIYRGDQKLGKAGQTNGNWWFIRTDDATQQQRFCNSASDAMWLVSRAELPEYTDTLNEYLQYRPLEQMPSVELKHLLDSAELTAA, MGSDKIHHHHHHMQAEKLMQVKDAVLKLRQQLRAGQIYQSLPSRMATLIKQLPSTVTTTVTIPSDEEVLPLIATLHEQLKKGTLTAMSDDQIKLLMAHVGSLNPLVRDQGVYYLLNEALQQQVLTPEQLGDIFDQLIQDQMLFAHIDEPQNDAIYQRSFAILLLSVLLYADHAGLKFMTPARLDLVVEQMTVYILLEKDTRGFVGTTGWAHAYTHIGNILDELADESQLARADKLLLLAALIARYQKLTTPLIFGEPERLSTYLTLITNKHELYCDYLLTAMKDWHQQLMMHTRPASEAEWTQIFNRNRLLEALALHDDLPTAVVDYLDDELEFLG
